Measurements: patent US20240058441A1 (published 2024)

Target: KRas protein (purified) (UniProt P01116 1-186)
Assay: SPR

| Kd | Binder |
| --- | --- |
| 1.09 nM | TKDm molecule (control molecule of TKD with mutated CTM, CTMmt, incapable of being recognized by lysosome) (VHH) VHH: DVQLQESGGGLVQAGGSLRLSCVASGRTFSTYPTGWFRQAPGKEREFVARINLSGGITNYADSVKGRFTISRDNAKNTVYLQMNSLKPEDTAVYYCGGGSTTWAGGIPTNFDYWGQGTQVTVSS |
| 7.24 nM | TKD molecule (nanobody-mediated KRas protein targeting degradation system; fusion protein BR2 - anti-KRas nanobody VHH - CTM) (VHH) VHH: DVQLQESGGGLVQAGGSLRLSCVASGRTFSTYPTGWFRQAPGKEREFVARINLSGGITNYADSVKGRFTISRDNAKNTVYLQMNSLKPEDTAVYYCGGGSTTWAGGIPTNFDYWGQGTQVTVSS |
